These results are taken from article PMC13078783.

For this assay, the target named is GFP-MAP7 (UniProt O88735). The experiment in a line: co-IP; HeLa cells transfected with GFP/GFP-MAP7, HA-KLC2 and HA-KIF5C (WT, ElbowLock, DeltaElbow); GFP-TRAP beads; western blot with anti-GFP and anti-HA.
GFP-MAP7, sequence (O88735 whole entry): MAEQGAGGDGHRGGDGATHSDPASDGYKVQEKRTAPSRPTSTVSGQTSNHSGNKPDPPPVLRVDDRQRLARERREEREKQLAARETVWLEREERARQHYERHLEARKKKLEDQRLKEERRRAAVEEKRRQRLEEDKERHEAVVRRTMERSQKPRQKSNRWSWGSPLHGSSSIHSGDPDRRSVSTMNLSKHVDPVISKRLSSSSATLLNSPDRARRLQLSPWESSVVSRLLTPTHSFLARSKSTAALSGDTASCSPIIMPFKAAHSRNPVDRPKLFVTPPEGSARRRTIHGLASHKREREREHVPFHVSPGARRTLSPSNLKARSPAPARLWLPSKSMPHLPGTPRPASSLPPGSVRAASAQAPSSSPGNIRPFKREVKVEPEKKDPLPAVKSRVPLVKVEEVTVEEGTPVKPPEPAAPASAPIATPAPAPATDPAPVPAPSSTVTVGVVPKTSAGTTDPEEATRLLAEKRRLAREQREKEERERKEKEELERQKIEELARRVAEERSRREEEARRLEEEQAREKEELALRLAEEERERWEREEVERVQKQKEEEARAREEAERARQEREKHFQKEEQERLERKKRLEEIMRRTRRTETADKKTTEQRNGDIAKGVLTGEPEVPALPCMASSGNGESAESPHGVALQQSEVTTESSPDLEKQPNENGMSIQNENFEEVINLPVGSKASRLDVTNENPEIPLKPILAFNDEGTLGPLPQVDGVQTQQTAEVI

As to “DeltaElbow kinesin-1 complex (HA-KIF5C DeltaElbow / HA-KLC2) (from UniProt P56536 1-955; O88448 1-599)”, the fold increase of kinesin-1 co-precipitated with GFP-MAP7 against wild-type or ElbowLock was determined as 5 fold.
